In patent publication US20230220084A1 (DRAGONFLY THERAPEUTICS, published 2023):
Numbering of substitutions follows the chain as printed.

Tests used:
[1] = biological target: T1, hCLEC12A-His fusion protein (human, UniProt Q5QGZ9 65-265, limits assumed); assay: yeast display flow cytometry with hCLEC12A-his (PE-A against FITC-A)
T1 construct: Recombinant His-tagged human CLEC12A; also called Human CLEC12A-His; recombinant human CLEC12A
T1 sequence (looked up): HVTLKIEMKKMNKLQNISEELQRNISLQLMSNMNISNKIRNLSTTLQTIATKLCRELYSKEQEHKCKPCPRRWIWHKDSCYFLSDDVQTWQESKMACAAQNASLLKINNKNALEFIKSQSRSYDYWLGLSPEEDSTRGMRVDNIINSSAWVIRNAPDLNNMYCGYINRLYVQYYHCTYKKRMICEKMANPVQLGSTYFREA

[2] = biological target: T1, hCLEC12A-His fusion protein; assay: SPR 37 C, two-state fit, kd2
[3] = biological target: T1, hCLEC12A-His fusion protein; assay: SPR 37 C, two-state fit; overall KD of two-state fit, 37 C
[4] = biological target: T1, hCLEC12A-His fusion protein; assay: SPR 37 C, two-state fit, ka1; ka1 of two-state fit, 37 C
[5] = biological target: T1, hCLEC12A-His fusion protein; assay: SPR 37 C, two-state fit, kd1; kd1 of two-state fit, 37 C
[6] = biological target: T1, hCLEC12A-His fusion protein; assay: yeast display flow cytometry with hCLEC12A-his (PE-A against FITC-A); remark: listed apart in the source
[7] = biological target: T1, hCLEC12A-His fusion protein; assay: yeast display, flow cytometry
[8] = biological target: T2, human CLEC12A expressed on cells (human, UniProt Q5QGZ9 1-265); assay: flow cytometry, PL21 cells
T2 construct: whole, on cells; also called RMA-hCLEC12A; hCLEC12A+Ba/F3
T2 sequence (looked up): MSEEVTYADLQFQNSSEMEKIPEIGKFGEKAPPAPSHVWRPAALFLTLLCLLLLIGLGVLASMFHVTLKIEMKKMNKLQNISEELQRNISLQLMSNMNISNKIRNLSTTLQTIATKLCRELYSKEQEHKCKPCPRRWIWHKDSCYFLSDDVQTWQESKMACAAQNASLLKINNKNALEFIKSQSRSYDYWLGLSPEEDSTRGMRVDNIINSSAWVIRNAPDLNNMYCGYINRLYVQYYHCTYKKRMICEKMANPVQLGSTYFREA

[9] = biological target: T1, hCLEC12A-His fusion protein; assay: SPR, purified murine mAb
cCLEC12A-His [10] = biological target: T3, cCLEC12A-His (cynomolgus monkey, UniProt A0A2K5WXQ4 71-271); assay: SPR, purified murine mAb
T3 construct: Recombinant His-tagged cynomolgus CLEC12A; also called Cyno CLEC12A-His; recombinant cyno CLEC12A
T3 sequence: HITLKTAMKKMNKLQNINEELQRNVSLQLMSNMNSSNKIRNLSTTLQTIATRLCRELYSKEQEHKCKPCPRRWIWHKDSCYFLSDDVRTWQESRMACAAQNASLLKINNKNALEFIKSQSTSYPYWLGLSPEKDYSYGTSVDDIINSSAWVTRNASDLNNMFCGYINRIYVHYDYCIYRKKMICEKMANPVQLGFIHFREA

cCLEC12A-His [11] = biological target: T3, cCLEC12A-His; assay: SPR, purified murine mAb, Cyno CLEC12A-His
[12] = biological target: T1, hCLEC12A-His fusion protein; assay: SPR screening
[13] = biological target: T1, hCLEC12A-His fusion protein; assay: SPR, analyte glycosylated hCLEC12A
De-glycosylated hCLEC12A = biological target: T4, De-glycosylated hCLEC12A (human, UniProt Q5QGZ9 65-265, limits assumed, N-glycans removed with PNGase); assay: SPR, analyte de-glycosylated hCLEC12A
T4 construct: Same protein as m1 after PNGase treatment; also called PNGase-treated hCLEC12A; deglycosylated version of hCLEC12A
T4 sequence (looked up): T1 sequence (looked up)

[14] = biological target: T1, hCLEC12A-His fusion protein; assay: SPR screening, fully purified murine mAb
De-sialylated hCLEC12A = biological target: T5, De-sialylated hCLEC12A (human, UniProt Q5QGZ9 65-265, limits assumed, glycans de-sialylated); assay: SPR, analyte de-sialylated hCLEC12A
T5 construct: Same protein as m1 after removal of sialic acid; also called de-sialylated version of hCLEC12A
T5 sequence (looked up): T1 sequence (looked up)

[15] = biological target: T1, hCLEC12A-His fusion protein; assay: SPR, purified murine mAb, Human CLEC12A-His

B1: parent scFv (YDYDDSLDY) (SEQ ID NO:5) of F3′-1602, yeast display (scFv)
scFv: QLQLQESGPGLVKPSETLSLTCTVSGFSLTNYGLHWIRQPPGKCLEWIGVIWSGGKTDYNPSLKSRVTISKDTSKNQFSLKLSSVQAADTAVYYCAKYDYDDSLDYWGQGTLVTVSSGGGGSGGGGSGGGGSGGGGSDIQMTQSPSSLSASVGDRVTITCHASQNINFWLSWYQQKPGKAPKLLIYEASNLHTGVPSRFSGSGSGTRFTLTISSLQPEDIATYYCQQSHSYPLTFGCGTKLEIK
[1]
  binding result: binds

B2: AB0053 (bispecific antibody)
chain: B1 scFv with S103A
[2]
  koff: 0.000949 s⁻¹
[3]
  Kd: 2.41 nM
[4]
  kon: 1.63e+06 M⁻¹ s⁻¹
[5]
  koff: 0.0157 s⁻¹

B3: scFv CDRH3 variant YDYDDVLDY (SEQ ID NO:144), yeast display (scFv)
scFv: B1 scFv with S103V
notes: As m72
[6]
  binding result: no binding

B4: scFv CDRH3 variant YDYDESLDY (SEQ ID NO:146), yeast display (scFv)
scFv: B1 scFv with D102E
notes: As m72
[6]
  binding result: no binding

B5: scFv CDRH3 variant YDYDDTLDY (SEQ ID NO:145), yeast display (scFv)
scFv: B1 scFv with S103T
notes: As m72
[6]
  binding result: no binding

B6: scFv CDRH3 variant YDYDDILDY (SEQ ID NO:142), yeast display (scFv)
scFv: B1 scFv with S103I
notes: As m72
[7]
  binding result: binds

B7: scFv CDRH3 variant YDYDDALDY (SEQ ID NO:141), yeast display (scFv)
scFv: B1 scFv with S103A
[7]
  binding result: binds

B8: scFv CDRH3 variant YDYDDLLDY (SEQ ID NO:143), yeast display (scFv)
scFv: B1 scFv with S103L
notes: As m72
[7]
  binding result: binds

B9: Merus-CLL1 (antibody, V domains shown)
VH: EVQLVQSGAEVKKPGASVKVSCKASGYTFTSYYMHWVRQAPGQGLEWMGIINPSGGSTSYAQKFQGRVTMTRDTSTSTVYMELSSLRSEDTAVYYCARGNYGDEFDYWGQGTLVTVSS
VL: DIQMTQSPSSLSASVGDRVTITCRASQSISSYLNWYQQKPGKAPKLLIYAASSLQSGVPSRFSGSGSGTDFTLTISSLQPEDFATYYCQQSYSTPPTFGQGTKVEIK
[8]
  EC50: 2.02 nM
  Max MFI: 201 MFI

B10: 15A10.G8 (antibody, V domains shown)
VH: EVQLQESGAELVRSGASIKLSCAASAFNIKDYFIHWVRQRPDQGLEWIGWIDPENDDTEYAPKFQDKATMTADTSSNTAYLQLSSLTSADTAVYYCNALWSRGGYFDYWGQGTTLTVSS
VL: EVLLTQSPAIIAASPGEKVTITCSARSSVSYMSWYQQKPGSSPKIWIYGISKLASGVPARFSGSGSGTYFSFTINNLEAEDVATYYCQQRSYYPFTFGSGTKLEIK
notes: Murine mAb purified from the hybridoma subclone
[9]
  Kd: 1.6 nM
  koff: 0.000494 s⁻¹
  kon: 301000 M⁻¹ s⁻¹
cCLEC12A-His [10]
  Kd: 3.3 nM
  koff: 0.000659 s⁻¹
  kon: 196000 M⁻¹ s⁻¹

B11: 9E4.B7 (antibody, V domains shown)
VH: EVQLQESGAELMKPGASVKISCRTTGYTFSTYWIEWVKQRPGRGPEWIGELFPGNSDTTLNEKFTGKATFTADSSSNTAYMQLSSLTSEDSAVYYCARSGYYGSSLDYWGQGTTLTVSS
VL: GIVMTQSPASLSASVGETVTITCRAGENIHSYLAWYQQKQGKSPQLLVYNAKTLAEGVPSRFSGSGSGTQFSLKINSLQPEDFGSYYCQHHYGTPRTFGGGTKLEIK
notes: as for B10
[8]
  EC50: 0.64 nM
  Max MFI: 186 MFI
cCLEC12A-His [11]
  binding result: no binding

B12: 9F11.B7 (antibody, V domains shown)
VH: EVQLQESGGGLVQPGGSRKLSCAASGFTFNSFGMHWVRQAPEKGLEWVAFISSGSTSIYYANTVKGRFTISRDNPKNTLFLQMTSLRSEDTAMYYCARDGYPTGGAMDYWGQGTSVTVSS
VL: DIKMTQSPSSMYASLGERVTITCKASQDIYNYLSWFQLKPGKSPRPLIYRANILVSGVPSKFSGSGSGQDYSLTINSLEYEDLGIYYCLQFDAFPFTFGSGTKLEIK
notes: as for B10
[8]
  EC50: 0.56 nM
  Max MFI: 217 MFI
[9]
  Kd: 1.4 nM
  koff: 0.00157 s⁻¹
  kon: 1.14e+06 M⁻¹ s⁻¹
cCLEC12A-His [11]
  binding result: no binding

B13: m9F11-hIgG1 (antibody, V domains shown)
VH: B12 VH
VL: B12 VL
notes: also called chimeric parent mouse 9F11.B7 mAb
[12]
  Kd: 1.07 nM
  koff: 0.00102 s⁻¹
  kon: 950000 M⁻¹ s⁻¹

B14: Genentech-h6E7 (antibody, V domains shown)
VH: EVQLVQSGAEVKKPGASVKVSCKASGYSFTDYYMHWVRQAPGQGLEWIGRINPYNGAAFYSQNFKDRVTLTVDTSTSTAYLELSSLRSEDTAVYYCAIERGADLEGYAMDYWGQGTLVTVSS
VL: DIQMTQSPSSLSASVGDRVTITCRASQSVSTSSYNYMHWYQQKPGKPPKLLIKYASNLESGVPSRFSGSGSGTDFTLTISSLQPEDFATYYCQHSWEIPLTFGQGTKVEIK
[8]
  EC50: 5 nM
  Max MFI: 265 MFI

B15: 16B8.C8 (antibody, V domains shown)
VH: EVQLQESGPGLVQPSQSLSITCTVSGFSLTNYGLHWVRQSPGKGLEWLGVIWSGGKTDYNTPFKSRLSISKDISKNQVFFKMNSLQPNDTAIYFCAKYDYDDSLDYWGQGTSVTVSS
VL: DIQMNQSPSSLSASLGDTIAITCHASQNINFWLSWYQQKPGNIPKLLIYEASNLHTGVPSRFSGSGSGTRFTLTISSLQPEDIATYYCQQSHSYPLTFGQGTKLEIK
notes: Murine mAb purified from the hybridoma subclone; also called Murine 16B8 mAb; Murine 16B8. mAb
[8]
  EC50: 0.18 nM
  Max MFI: 300 MFI
[13]
  Kd: 0.012 nM
  koff: 4.7e-05 s⁻¹
  kon: 4.05e+06 M⁻¹ s⁻¹
De-glycosylated hCLEC12A
  Kd: 0.011 nM
  koff: 4.45e-05 s⁻¹
  kon: 4.26e+06 M⁻¹ s⁻¹
[9]
  Kd: 0.01 nM
  koff: 4.44e-05 s⁻¹
  kon: 4.05e+06 M⁻¹ s⁻¹
cCLEC12A-His [11]
  binding result: no binding
[14]
  Kd: 0.008 nM
  koff: 2.35e-05 s⁻¹
  kon: 3.03e+06 M⁻¹ s⁻¹
De-sialylated hCLEC12A
  Kd: 0.007 nM
  koff: 3.62e-05 s⁻¹
  kon: 5.25e+06 M⁻¹ s⁻¹

B16: 13E1.A4 (antibody, V domains shown)
VH: EVQLQESGPELEKPGASVRISCKASGYSFTAYNMNWVKQSNGKSLEWIGNIDPSYGDATYNQKFKGKATLTVDKSSSTAYMQLKSLTSEDSAVYYCARDNYYGSGYFDYWGQGTTLTVSS
VL: SVLMTQTPLSLPVSLGDRASISCRSSQGIVHINGNTYLEWYLQKPGQSPKLLIYKVSNRFSGVPDRFSGSGSGTDFTLKISRVEAEDLGVYYCFQGSHVPWTFGGGTKLEIK
notes: as for B10
[15]
  binding result: binds
